These results are taken from patent US7148006.

The target in this assay is wild type human PKR, full length (aa 1-551) (human) (UniProt P19525). Nature of the assay: cell-based or functional assay.
wild type human PKR, full length (aa 1-551) (human), sequence (P19525 whole entry, the tested form may be a part): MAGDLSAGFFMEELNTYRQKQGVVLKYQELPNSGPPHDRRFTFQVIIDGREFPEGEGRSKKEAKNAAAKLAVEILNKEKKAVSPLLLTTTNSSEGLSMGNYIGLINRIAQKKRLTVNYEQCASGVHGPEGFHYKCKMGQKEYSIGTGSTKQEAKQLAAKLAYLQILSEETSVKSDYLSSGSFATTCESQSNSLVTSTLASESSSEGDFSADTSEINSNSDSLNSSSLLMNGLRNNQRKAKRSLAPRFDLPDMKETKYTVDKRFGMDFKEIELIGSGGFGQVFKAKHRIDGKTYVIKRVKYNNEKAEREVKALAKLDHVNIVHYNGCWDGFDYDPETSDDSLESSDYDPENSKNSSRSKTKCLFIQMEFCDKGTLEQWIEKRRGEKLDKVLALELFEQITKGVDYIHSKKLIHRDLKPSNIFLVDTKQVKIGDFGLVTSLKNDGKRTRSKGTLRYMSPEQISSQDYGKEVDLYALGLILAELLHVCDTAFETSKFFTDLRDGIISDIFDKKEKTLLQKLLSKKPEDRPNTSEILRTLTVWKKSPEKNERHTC

For the substance “NS5A 1b-2 (untagged, expressed from pYES-NS5A 1b-2)”, the fold decrease in plating efficiency of yeast RY1-1 on galactose medium lay in the range of 10 to 100 fold.
